System: hMSCs
Assay: Serum starvation study of PDGF-BB bioactivity (cell proliferation)
Format: cell-based, human
Details: Invitrogen versus Prospec Bio
Description: At the initiation of this study, arbitrarily called “Day −2”, a vial of hMSCs was thawed, resuspended in 10% FBS DMEM, and seeded into 96 well TCPS plates at a seeding density of 12,500 cells/cm2 or 4000 cells/well. On “Day −1”, 24 hours following the initial cell seeding, the media in the wells was changed with DMEM prepared with various concentrations of FBS (Table 6). On Day 0, the media was supplemented with various concentrations of PDGF-BB (Prospec Bio or Invitrogen). PDGF-BB supplementation was done either once at Day 0, or continually for every 48-72 hours until Day 7.
At Days 4 and 7 following growth factor induction, cells were harvested for cell proliferation assay. Briefly, cell lysates (n=3 per media and PDGF-BB condition) were prepared by lysing cells in 0.1% Triton X-100. The PicoGreen reagent fluorescently labels double stranded DNA which was correlated to cell number using a standard curve. The PicoGreen reagent was added to the cell lysates and the fluorescence was detected with a plate reader at 485 nm excitation/528 nm emission.

B1: PDGF-BB from Invitrogen: Recombinant human PDGF-BB purchased from Invitrogen, used for subsequent studies (protein, UniProt P01127 82-190, looked up)
Platelet-derived growth …: SLGSLTIAEPAMIAECKTRTEVFEISRRLIDRTNANFLVWPPCVEVQRCSGCCNNRNVQCRPTQVQLRPVQVRKIEIVRKKPIFKKATVTLEDHLACKCETVAAARPVT
bioactivity of PDGF-BB (cell proliferation studies): more bioactive

Source: patent publication US10081794B2, “System and method for electrospun biodegradable scaffold for bone repair” (New Jersey Institute of Technology, priority 2011, dated 2018)
